B1: Zinc finger protein GLIS2 (Homo sapiens), Q9BZE0 (parent)
chain: MHSLDEPLDLKLSITKLRAAREKRERTLGVVRPRALHRELGLVDDSPTPGSPGSPPSGFLLNSKFPEKVEGRFSAAPLVDLSLSPPSGLDSPNGSSSLSPERQGNGDLPPVPSASDFQPLRYLDGVPSSFQFFLPLGSGGALHLPASSFLTPPKDKCLSPDLPLPKQLVCRWAKCNQLFELLQDLVDHVNDYHVKPEKDAGYCCHWEGCARHGRGFNARYKMLIHIRTHTNEKPHRCPTCSKSFSRLENLKIHNRSHTGEKPYVCPYEGCNKRYSNSSDRFKHTRTHYVDKPYYCKMPGCHKRYTDPSSLRKHIKAHGHFVSHEQQELLQLRPPPKPPLPAPDGGPYVSGAQIIIPNPAALFGGPGLPGLPLPLAPGPLDLSALACGNGGGSGGGGGMGPGLPGPVLPLNLAKNPLLPSPFGAGGLGLPVVSLLAGAAGGKAEGEKGRGSVPTRALGMEGHKTPLERTESSCSRPSPDGLPLLPGTVLDLSTGVNSAASSPEALAPGWVVIPPGSVLLKPAVVN

Variants of: B1
Settings: with ctnb1_human CTNNB1, P35222
ctnb1_human CTNNB1, P35222, sequence (P35222 whole entry): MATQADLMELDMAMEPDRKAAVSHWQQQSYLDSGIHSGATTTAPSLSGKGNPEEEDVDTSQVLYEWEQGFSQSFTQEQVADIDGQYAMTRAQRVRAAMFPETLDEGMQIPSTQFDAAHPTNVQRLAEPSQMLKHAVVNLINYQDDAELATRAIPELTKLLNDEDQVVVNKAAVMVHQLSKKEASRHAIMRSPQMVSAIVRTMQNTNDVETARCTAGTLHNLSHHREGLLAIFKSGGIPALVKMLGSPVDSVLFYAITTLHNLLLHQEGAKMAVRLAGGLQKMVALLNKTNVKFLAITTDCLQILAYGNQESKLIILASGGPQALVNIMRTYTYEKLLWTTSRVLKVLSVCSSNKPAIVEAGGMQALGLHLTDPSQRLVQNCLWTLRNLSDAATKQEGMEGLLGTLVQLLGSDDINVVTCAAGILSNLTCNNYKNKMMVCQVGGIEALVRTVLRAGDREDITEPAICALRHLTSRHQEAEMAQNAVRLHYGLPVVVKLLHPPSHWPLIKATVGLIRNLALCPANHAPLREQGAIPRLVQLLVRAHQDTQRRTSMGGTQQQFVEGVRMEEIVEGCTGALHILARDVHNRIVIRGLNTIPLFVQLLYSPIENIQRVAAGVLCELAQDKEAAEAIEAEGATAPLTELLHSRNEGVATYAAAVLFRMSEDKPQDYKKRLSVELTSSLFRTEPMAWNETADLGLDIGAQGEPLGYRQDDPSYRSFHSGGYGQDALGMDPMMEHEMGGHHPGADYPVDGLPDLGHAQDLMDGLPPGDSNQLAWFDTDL

Question: How did the “effect of a mutation on the interaction” value turn out when C175A was run?
Answer: disrupting interaction

Source: IntAct's records for PubMed 17289029
